From paper PMC3457645

Assays:
Experiment in all cases: purified protein
purified protein [1] = substrate: CC(=O)Oc1ccc([N+](=O)[O-])cc1; assay type: biochemical, Homo sapiens
purified protein [2] = substrate: O=Cc1ccccc1; assay type: biochemical, Homo sapiens; settings: NAD+
purified protein [3] = substrate: CCCCCCCC=O; assay type: biochemical, Homo sapiens; settings: NAD+
purified protein [4] = substrate: CCCCCC=O; assay type: biochemical, Homo sapiens; settings: NAD+
purified protein [5] = substrate: CC=O; assay type: biochemical, Homo sapiens; settings: NAD+
purified protein [6] = substrate: CCCCCC(O)/C=C/C=O; settings: NAD+

B1: ALDH3B1 (Homo sapiens) (protein)
chain: MDPLGDTLRRLREAFHAGRTRPAEFRAAQLQGLGRFLQENKQLLHDALAQDLHKSAFESEVSEVAISQGEVTLALRNLRAWMKDERVPKNLATQLDSAFIRKEPFGLVLIIAPWNYPLNLTLVPLVGALAAGNCVVLKPSEISKNVEKILAEVLPQYVDQSCFAVVLGGPQETGQLLEHRFDYIFFTGSPRVGKIVMTAAAKHLTPVTLELGGKNPCYVDDNCDPQTVANRVAWFRYFNAGQTCVAPDYVLCSPEMQERLLPALQSTITRFYGDDPQSSPNLGRIINQKQFQRLRALLGCGRVAIGGQSDESDRYIAPTVLVDVQEMEPVMQEEIFGPILPIVNVQSLDEAIEFINRREKPLALYAFSNSSQVVKRVLTQTSSGGFCGNDGFMHMTLASLPFGGVGASGMGRYHGKFSFDTFSHHRACLLRSPGMEKLNALRYPPQSPRRLRMLLVAMEAQGCSC
Km (purified protein [1]): 3600 ± 250 µM
Vmax (purified protein [1]): 1.32 µmol/min/mg
Km (purified protein [2]): 46 ± 11 µM
Vmax (purified protein [2]): 0.129 µmol/min/mg
Km (purified protein [3]): 8 ± 2 µM
Vmax (purified protein [3]): 1.24 µmol/min/mg
Km (purified protein [4]): 62 ± 8 µM
Vmax (purified protein [4]): 0.679 µmol/min/mg
Km (purified protein [5]): 23300 ± 1500 µM
Vmax (purified protein [5]): 0.315 µmol/min/mg
Km (purified protein [6]): 52 ± 5 µM
Vmax (purified protein [6]): 0.653 µmol/min/mg
